Measurements taken from publication PMC9636422, “AZIN1 RNA editing alters protein interactions, leading to nuclear translocation and worse outcomes in prostate cancer” (Experimental & Molecular Medicine, 2022).

What was measured:
Assay in all cases: FRET or BRET; AZ-mRuby2 titrated (100 pM-1 µM) to a fixed concentration of Clover-AZIN1 variants (50 nM); TBS pH 7.4 + 0.15% Tween-20; equilibrated at room temp for 1 h; donor quenching fitted
Conditions in all cases: both partners purified
[1] = biological target: T1, Clover-AZIN1 S367N mutant, recombinant fusion protein (human, UniProt O14977 1-448, S367N)
T1 construct: source: E. coli (pBAD vector), purified recombinant; not shown: Clover, N-terminal, kept
T1 sequence (looked up): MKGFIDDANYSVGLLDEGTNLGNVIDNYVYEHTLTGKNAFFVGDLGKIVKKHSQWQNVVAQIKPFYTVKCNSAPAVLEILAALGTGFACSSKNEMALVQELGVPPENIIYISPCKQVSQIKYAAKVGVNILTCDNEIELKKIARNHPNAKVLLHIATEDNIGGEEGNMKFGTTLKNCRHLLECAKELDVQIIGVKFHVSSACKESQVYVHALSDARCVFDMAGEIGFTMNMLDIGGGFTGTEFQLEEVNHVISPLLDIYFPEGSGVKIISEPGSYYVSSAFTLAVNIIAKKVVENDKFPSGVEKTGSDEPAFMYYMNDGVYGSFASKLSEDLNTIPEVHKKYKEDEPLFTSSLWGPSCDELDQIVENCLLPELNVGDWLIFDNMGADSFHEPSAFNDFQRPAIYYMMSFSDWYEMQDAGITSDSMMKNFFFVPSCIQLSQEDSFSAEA

[2] = biological target: T2, Clover-AZIN1 (wild type), recombinant fusion protein (human, UniProt O14977 1-448)
T2 construct: The vector encodes the 6X-HIS-tagged fluorescent protein with a TEV protease cleavage site; also called wild-type protein; hAZIN1; source: E. coli (pBAD vector), purified recombinant; not shown: Clover, N-terminal, kept
T2 sequence (looked up): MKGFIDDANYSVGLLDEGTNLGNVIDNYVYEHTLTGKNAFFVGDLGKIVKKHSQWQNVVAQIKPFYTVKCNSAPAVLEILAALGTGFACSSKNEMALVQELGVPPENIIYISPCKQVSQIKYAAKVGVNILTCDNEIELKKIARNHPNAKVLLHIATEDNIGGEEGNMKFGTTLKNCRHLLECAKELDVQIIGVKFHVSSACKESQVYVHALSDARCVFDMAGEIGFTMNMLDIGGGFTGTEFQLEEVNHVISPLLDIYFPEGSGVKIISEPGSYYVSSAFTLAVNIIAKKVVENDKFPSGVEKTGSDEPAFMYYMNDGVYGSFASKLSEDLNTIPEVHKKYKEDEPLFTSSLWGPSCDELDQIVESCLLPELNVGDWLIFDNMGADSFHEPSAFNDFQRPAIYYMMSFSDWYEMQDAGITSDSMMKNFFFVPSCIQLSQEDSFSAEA

[3] = biological target: T3, Clover-AZIN1 S367G (edited AZIN1), recombinant fusion protein (human, UniProt O14977 1-448, S367G)
T3 construct: Point mutation introduced by PCR-based site-directed mutagenesis; source: E. coli (pBAD vector), purified recombinant; not shown: Clover, N-terminal, kept
T3 sequence (looked up): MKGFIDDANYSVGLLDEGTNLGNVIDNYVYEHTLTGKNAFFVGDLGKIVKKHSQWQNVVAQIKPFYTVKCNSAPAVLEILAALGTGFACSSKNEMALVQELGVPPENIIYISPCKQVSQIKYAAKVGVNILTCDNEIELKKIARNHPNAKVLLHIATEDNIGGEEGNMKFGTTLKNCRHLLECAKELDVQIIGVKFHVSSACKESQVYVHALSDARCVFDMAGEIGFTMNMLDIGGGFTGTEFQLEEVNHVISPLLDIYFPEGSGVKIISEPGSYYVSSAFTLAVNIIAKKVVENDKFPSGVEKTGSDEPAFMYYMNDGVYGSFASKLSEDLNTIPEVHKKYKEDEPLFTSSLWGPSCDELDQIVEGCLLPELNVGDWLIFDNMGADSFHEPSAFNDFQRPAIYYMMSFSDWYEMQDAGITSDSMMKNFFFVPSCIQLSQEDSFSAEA

[4] = biological target: T4, Clover-AZIN1 S367A mutant, recombinant fusion protein (human, UniProt O14977 1-448, S367A)
T4 construct: source: E. coli (pBAD vector), purified recombinant; not shown: Clover, N-terminal, kept
T4 sequence (looked up): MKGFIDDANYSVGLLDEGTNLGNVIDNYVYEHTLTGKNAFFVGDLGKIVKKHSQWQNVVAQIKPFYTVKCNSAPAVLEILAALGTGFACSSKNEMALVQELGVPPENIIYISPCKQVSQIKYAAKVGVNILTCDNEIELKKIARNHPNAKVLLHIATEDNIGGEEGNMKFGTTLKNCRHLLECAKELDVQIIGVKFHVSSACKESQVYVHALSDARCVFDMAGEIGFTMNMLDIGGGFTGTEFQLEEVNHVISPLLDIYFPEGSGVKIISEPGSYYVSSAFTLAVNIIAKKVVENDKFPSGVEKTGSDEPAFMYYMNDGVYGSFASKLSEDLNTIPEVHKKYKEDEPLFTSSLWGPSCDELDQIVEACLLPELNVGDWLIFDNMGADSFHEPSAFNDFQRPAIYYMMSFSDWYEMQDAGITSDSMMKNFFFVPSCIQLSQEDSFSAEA

Kd [1]: 40 nM
Kd [2]: 22 nM
Kd [3]: 57 nM
Kd [4]: 39 nM
B1: antizyme-mRuby2 (AZ-mRuby2), recombinant fusion protein (natural protein)
chain: not shown
notes: antizyme (human OAZ1 gene, codon optimised for E. coli and synthesised de novo); also called hOAZ1; source: E. coli (pBAD vector, codon-optimised gene), purified recombinant
